B1: humanized RFB4 antibody VH6/VK2 (antibody, human IgG1, V domains shown)
VH: EVQLVESGGGLVKPGGSLKLSCAASGFAFSIYDMSWVRQAPGKGLEWVAYISSGGGTTYYPDTVKGRFTISRDNAKNSLYLQMSSLRAEDTAMYYCARHSGYGSSYGVLFAYWGQGTLVTVSS
VL: DIQMTQSPSSLSASVGDRVTITCRASQDISNYLNWYQQKPGKAVKLLIYYTSILHSGVPSRFSGSGSGTDYTLTISSLQPEDFATYFCQQGNTLPWTFGGGTKVEIK
B2: humanized RFB4 antibody VH5/VK4 (antibody, human IgG1, V domains shown)
VH: B1 VH with S84N
VL: B1 VL with L11V, V44P
B3: humanized RFB4 antibody VH4/VK1 (antibody, human IgG1, V domains shown)
VH: B1 VH with K19R
VL: B1 VL with P80Q
B4: humanized RFB4 antibody VH3/VK2 (antibody, human IgG1, V domains shown)
VH: B1 VH with S78T
VL: B1 VL
B5: humanized RFB4 antibody VH6/VK1 (antibody, human IgG1, V domains shown)
VH: B1 VH
VL: B1 VL with P80Q
B6: humanized RFB4 antibody VH4/VK2 (antibody, human IgG1, V domains shown)
VH: B1 VH with K19R
VL: B1 VL
B7: humanized RFB4 antibody VH3/VK1 (antibody, human IgG1, V domains shown)
VH: B1 VH with S78T
VL: B1 VL with P80Q
B8: humanized RFB4 antibody VH3/VK4 (antibody, human IgG1, V domains shown)
VH: B1 VH with S78T
VL: B1 VL with L11V, V44P
B9: humanized RFB4 antibody VH4/VK4 (antibody, human IgG1, V domains shown)
VH: B1 VH with K19R
VL: B1 VL with L11V, V44P
B10: humanized RFB4 antibody VH5/VK1 (antibody, human IgG1, V domains shown)
VH: B1 VH with S84N
VL: B1 VL with P80Q
B11: humanized RFB4 antibody VH6/VK4 (antibody, human IgG1, V domains shown)
VH: B1 VH
VL: B1 VL with L11V, V44P
B12: humanized RFB4 antibody VH5/VK2 (antibody, human IgG1, V domains shown)
VH: B1 VH with S84N
VL: B1 VL

Positions count from the first letter of the chain named.

The test concerns the target T1, CD22-Fc (R&D Systems Cat. No. 1968SL) (human, UniProt P20273 20-687).
T1 construct: Bought reagent; also called CD22 antigen; huCD22-Fc; not shown: Fc part of the bought fusion
T1 sequence (looked up): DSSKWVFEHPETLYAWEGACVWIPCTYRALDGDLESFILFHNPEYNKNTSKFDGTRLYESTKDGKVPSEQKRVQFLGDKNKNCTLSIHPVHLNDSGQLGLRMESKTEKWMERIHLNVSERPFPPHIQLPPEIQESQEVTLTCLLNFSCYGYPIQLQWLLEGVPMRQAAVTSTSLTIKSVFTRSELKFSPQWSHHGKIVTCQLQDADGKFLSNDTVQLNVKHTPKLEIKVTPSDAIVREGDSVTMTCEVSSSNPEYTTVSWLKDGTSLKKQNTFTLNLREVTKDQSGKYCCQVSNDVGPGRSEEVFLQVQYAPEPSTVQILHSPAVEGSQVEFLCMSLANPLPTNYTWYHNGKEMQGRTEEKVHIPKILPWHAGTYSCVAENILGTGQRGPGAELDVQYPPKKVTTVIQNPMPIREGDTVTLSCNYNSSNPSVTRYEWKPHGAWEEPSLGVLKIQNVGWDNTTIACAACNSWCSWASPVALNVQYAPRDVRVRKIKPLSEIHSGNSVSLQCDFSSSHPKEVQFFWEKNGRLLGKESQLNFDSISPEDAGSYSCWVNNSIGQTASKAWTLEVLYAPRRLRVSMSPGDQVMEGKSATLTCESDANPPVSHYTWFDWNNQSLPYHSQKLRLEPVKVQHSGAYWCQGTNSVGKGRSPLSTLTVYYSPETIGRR
The test is described as follows: competition ELISA on coated CD22-Fc; competitor biotinylated chimeric RFB4. As to the method: 96 well MaxiSorp plates (Nunc) were coated with 1.0 μg/ml CD22-Fc (R&D Systems Cat. No. 1968SL) in Dulbecco's PBS (PAA Laboratories, Yeovil, UK) (60 μl final volume) at 4° C. overnight. Plates were blocked with Dulbecco's PBS-2% BSA for 1 hour at room temperature. Plates were washed 3 times with wash buffer (0.05% Tween20 in Dulbecco's-PBS). […] All samples were tested in duplicate. Plates were incubated for 1 h at room temperature and washed 3 times with wash buffer. 60 μl of a 1 in 1000 dilution of Streptavidin horse radish peroxidase (HRP) (Sigma-Aldrich) was added and incubated for 1 hour at room temperature. Plates were washed 3 times with wash buffer and 60 μl of 3,3′,5,5′-tetramethybenzidine (TMB) substrate (Invitrogen) was added and incubated at room temperature in the dark to allow the colour to develop. The reaction was stopped by adding 50 μl of 3M HCl. Plates were read at 450 nm using Dynex plate reader.
In general terms: An ELISA detects its analyte on a solid surface through an enzyme-linked reagent.
For the molecule B1, the “IC50 relative to Chimeric RFB4 IgG1” value is 1 relative to Chimeric RFB4 IgG1.
Turning to B2, the “IC50 relative to Chimeric RFB4 IgG1” value was 1 relative to Chimeric RFB4 IgG1.
For B3, the “IC50 relative to Chimeric RFB4 IgG1” value was 0.9 relative to Chimeric RFB4 IgG1.
With B4 the figure was 1 relative to Chimeric RFB4 IgG1; with B5, 0.9 relative to Chimeric RFB4 IgG1.
For the molecule B6, the “IC50 relative to Chimeric RFB4 IgG1” value is 1.1 relative to Chimeric RFB4 IgG1.
With B7 the figure was 0.8 relative to Chimeric RFB4 IgG1.
Regarding B8, the “IC50 relative to Chimeric RFB4 IgG1” value is 1.1 relative to Chimeric RFB4 IgG1.
Consider B9, for which the “IC50 relative to Chimeric RFB4 IgG1” value was 1 relative to Chimeric RFB4 IgG1.
With B10 the figure was 0.9 relative to Chimeric RFB4 IgG1; with B11, 1 relative to Chimeric RFB4 IgG1; with B12, 1 relative to Chimeric RFB4 IgG1.

The values above are taken from patent US20190352395A1 (REDWOOD BIOSCIENCE, published 2019).
